In patent US20260167699A1 (Chugai, published 2026):

B1: GpH7-A5/GpH7-B3 variant G236_10E/GpL16-k0 (antibody, human IgG1, kappa)
heavy 1: not shown
heavy 2: not shown
light: DIVMTQSPLSLPVTPGEPASISCQASESLVHSNRNTYLHWYLQKPGQSPQLLIYKVSNRFSGVPDRFSGSGSGTDFTLKISRVEAEDVGVYYCSQNTHVPPTFGQGTKVEIERTVAAPSVFIFPPSDEQLKSGTASVVCLLNNFYPREAKVQWKVDNALQSGNSQESVTEQDSKDSTYSLSSTLTLSKADYEKHKVYACEVTHQGLSSPVTKSFNRGEC
notes: He Ab; copies: 1 + 1 + 2
B2: GpH7-A5/GpH7-B3 variant A330_10E/GpL16-k0 (antibody, human IgG1, kappa)
heavy 1: not shown
heavy 2: not shown
light: B1 light
notes: He Ab; copies: 1 + 1 + 2
B3: GpH7-A5/GpH7-B3 variant E333_01G/GpL16-k0 (antibody, human IgG1, kappa)
heavy 1: not shown
heavy 2: not shown
light: B1 light
notes: He Ab; copies: 1 + 1 + 2
B4: GpH7-A5/GpH7-B3 variant E269_09D/GpL16-k0 (antibody, human IgG1, kappa)
heavy 1: not shown
heavy 2: not shown
light: B1 light
notes: He Ab; copies: 1 + 1 + 2
B5: GpH7-A5/GpH7-B3 variant E333_06M/GpL16-k0 (antibody, human IgG1, kappa)
heavy 1: not shown
heavy 2: not shown
light: B1 light
notes: He Ab; copies: 1 + 1 + 2
B6: GpH7-A5/GpH7-B3 variant D270_07I/GpL16-k0 (antibody, human IgG1, kappa)
heavy 1: not shown
heavy 2: not shown
light: B1 light
notes: He Ab; copies: 1 + 1 + 2
B7: GpH7-A5/GpH7-B3 variant E333_14T/GpL16-k0 (antibody, human IgG1, kappa)
heavy 1: not shown
heavy 2: not shown
light: B1 light
notes: He Ab; copies: 1 + 1 + 2
B8: GpH7-A5/GpH7-B3 variant E269_01G/GpL16-k0 (antibody, human IgG1, kappa)
heavy 1: not shown
heavy 2: not shown
light: B1 light
notes: He Ab; copies: 1 + 1 + 2
B9: GpH7-A5/GpH7-B3 variant A330_08L/GpL16-k0 (antibody, human IgG1, kappa)
heavy 1: not shown
heavy 2: not shown
light: B1 light
notes: He Ab; copies: 1 + 1 + 2
B10: GpH7-A5/GpH7-B3 variant A330_01G/GpL16-k0 (antibody, human IgG1, kappa)
heavy 1: not shown
heavy 2: not shown
light: B1 light
notes: He Ab; copies: 1 + 1 + 2
B11: GpH7-A5/GpH7-B3 variant G236_03V/GpL16-k0 (antibody, human IgG1, kappa)
heavy 1: not shown
heavy 2: not shown
light: B1 light
notes: He Ab; copies: 1 + 1 + 2
B12: GpH7-A5/GpH7-B3 variant G237_03V/GpL16-k0 (antibody, human IgG1, kappa)
heavy 1: not shown
heavy 2: not shown
light: B1 light
notes: He Ab; copies: 1 + 1 + 2
B13: GpH7-A5/GpH7-B3 variant A330_19Q/GpL16-k0 (antibody, human IgG1, kappa)
heavy 1: not shown
heavy 2: not shown
light: B1 light
notes: He Ab; copies: 1 + 1 + 2
B14: GpH7-A5/GpH7-B3 variant E269_14T/GpL16-k0 (antibody, human IgG1, kappa)
heavy 1: not shown
heavy 2: not shown
light: B1 light
notes: He Ab; copies: 1 + 1 + 2
B15: GpH7-A5/GpH7-B3 variant A330_03V/GpL16-k0 (antibody, human IgG1, kappa)
heavy 1: not shown
heavy 2: not shown
light: B1 light
notes: He Ab; copies: 1 + 1 + 2
B16: GpH7-A5/GpH7-B3 variant E333_12R/GpL16-k0 (antibody, human IgG1, kappa)
heavy 1: not shown
heavy 2: not shown
light: B1 light
notes: He Ab; copies: 1 + 1 + 2
B17: GpH7-A5/GpH7-B3 variant G236_15Y/GpL16-k0 (antibody, human IgG1, kappa)
heavy 1: not shown
heavy 2: not shown
light: B1 light
notes: He Ab; copies: 1 + 1 + 2
B18: GpH7-A5/GpH7-B3 variant D270_08L/GpL16-k0 (antibody, human IgG1, kappa)
heavy 1: not shown
heavy 2: not shown
light: B1 light
notes: He Ab; copies: 1 + 1 + 2
B19: GpH7-A5/GpH7-B3 variant E269_08L/GpL16-k0 (antibody, human IgG1, kappa)
heavy 1: not shown
heavy 2: not shown
light: B1 light
notes: He Ab; copies: 1 + 1 + 2
B20: GpH7-A5/GpH7-B3 variant A330_14T/GpL16-k0 (antibody, human IgG1, kappa)
heavy 1: not shown
heavy 2: not shown
light: B1 light
notes: He Ab; copies: 1 + 1 + 2
B21: GpH7-A5/GpH7-B3 variant A327_10E/GpL16-k0 (antibody, human IgG1, kappa)
heavy 1: not shown
heavy 2: not shown
light: B1 light
notes: He Ab; copies: 1 + 1 + 2
B22: GpH7-A5/GpH7-B3 variant A327_20W/GpL16-k0 (antibody, human IgG1, kappa)
heavy 1: not shown
heavy 2: not shown
light: B1 light
notes: He Ab; copies: 1 + 1 + 2
B23: GpH7-A5/GpH7-B3 variant A330_09D/GpL16-k0 (antibody, human IgG1, kappa)
heavy 1: not shown
heavy 2: not shown
light: B1 light
notes: He Ab; copies: 1 + 1 + 2
B24: GpH7-A5/GpH7-B3 variant D270_10E/GpL16-k0 (antibody, human IgG1, kappa)
heavy 1: not shown
heavy 2: not shown
light: B1 light
notes: He Ab; copies: 1 + 1 + 2
B25: GpH7-A5/GpH7-B3 variant A330_12R/GpL16-k0 (antibody, human IgG1, kappa)
heavy 1: not shown
heavy 2: not shown
light: B1 light
notes: He Ab; copies: 1 + 1 + 2
B26: GpH7-A5/GpH7-B3 variant D270_03V/GpL16-k0 (antibody, human IgG1, kappa)
heavy 1: not shown
heavy 2: not shown
light: B1 light
notes: He Ab; copies: 1 + 1 + 2
B27: GpH7-A5/GpH7-B3 variant E269_06M/GpL16-k0 (antibody, human IgG1, kappa)
heavy 1: not shown
heavy 2: not shown
light: B1 light
notes: He Ab; copies: 1 + 1 + 2
B28: GpH7-A5/GpH7-B3 variant G236_09D/GpL16-k0 (antibody, human IgG1, kappa)
heavy 1: not shown
heavy 2: not shown
light: B1 light
notes: He Ab; copies: 1 + 1 + 2
B29: GpH7-A5/GpH7-B3 variant D270_18N/GpL16-k0 (antibody, human IgG1, kappa)
heavy 1: not shown
heavy 2: not shown
light: B1 light
notes: He Ab; copies: 1 + 1 + 2
B30: GpH7-A5/GpH7-B3 variant G236_07I/GpL16-k0 (antibody, human IgG1, kappa)
heavy 1: not shown
heavy 2: not shown
light: B1 light
notes: He Ab; copies: 1 + 1 + 2
B31: GpH7-A5/GpH7-B3 variant A330_07I/GpL16-k0 (antibody, human IgG1, kappa)
heavy 1: not shown
heavy 2: not shown
light: B1 light
notes: He Ab; copies: 1 + 1 + 2

What follows are binders tested against T1, FcγRIIIa extracellular domain, C-terminal His tag (human, UniProt P08637 17-208) (assay: SPR, binding activity relative to GpH7-A5/GpH7-B3/GpL16-k0 (=100)).
T1 construct: extracellular domain; also called 3a
T1 sequence (P08637 other isoform, or with tags, fused parts or gaps): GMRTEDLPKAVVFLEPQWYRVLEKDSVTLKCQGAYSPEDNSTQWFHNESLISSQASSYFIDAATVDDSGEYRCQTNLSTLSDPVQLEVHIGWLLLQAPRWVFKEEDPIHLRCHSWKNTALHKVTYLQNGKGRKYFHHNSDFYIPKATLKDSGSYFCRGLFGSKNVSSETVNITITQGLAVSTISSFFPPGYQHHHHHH

Row | He/Con 3a [%] | Binder
1 | 65.8 | B1
2 | 82.8 | B2
3 | 101 | B3
4 | 106 | B4
5 | 100 | B5
6 | 63.1 | B6
7 | 100 | B7
8 | 61.6 | B8
9 | 122 | B9
10 | 87.3 | B10
11 | 53.8 | B11
12 | 51.3 | B12
13 | 86.3 | B13
14 | 59.7 | B14
15 | 98.8 | B15
16 | 92.2 | B16

Row | He/Con 3a [%] | Binder
17 | 112 | B17
18 | 65.1 | B18
19 | 51.5 | B19
20 | 85.8 | B20
21 | 70.5 | B21
22 | 52.6 | B22
23 | 56.4 | B23
24 | 112 | B24
25 | 77.3 | B25
26 | 54.6 | B26
27 | 57.9 | B27
28 | 66.2 | B28
29 | 51.2 | B29
30 | 55.6 | B30
31 | 101 | B31
